Substitutions are numbered along the chain they refer to.
T1: MBP-HY5 (Arabidopsis thaliana, UniProt O24646 1-168)
T1 sequence: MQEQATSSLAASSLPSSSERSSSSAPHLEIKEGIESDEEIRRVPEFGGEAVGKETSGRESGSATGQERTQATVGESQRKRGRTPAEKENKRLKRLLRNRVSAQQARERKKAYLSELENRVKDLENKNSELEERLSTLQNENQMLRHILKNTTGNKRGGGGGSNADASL

B1: P2 (STOMAGEN promoter) (dsDNA)
DNA 1: TCCTCTGTATTTTCAAACTCTTATCTCTACGTGTGCACAAACCTCACCATTAGATGATAA
DNA 2: TTATCATCTAATGGTGAGGTTTGTGCACACGTAGAGATAAGAGTTTGAAAATACAGAGGA
B2: mP2 (Z-box mutated) (dsDNA)
DNA 1: B1 DNA 1 with T28A, C30A, G31A, T32A, G33A
DNA 2: B1 DNA 2 with C28T, A29T, C30T, G31T, A33T

Tests used:
MBP-HY5 [1] = molecular target: T1, MBP-HY5; test: EMSA; EMSA: 20 fmol biotin probe, ~1 ug protein, 20 ul binding buffer (composition not given), on ice 1 h; pull-down: 10 mM Tris-HCl pH 7.5, 50 mM KCl, 5 mM MgCl2, 2.5% glycerol, 0.05% NP-40, 5 ug salmon sperm DNA, 10 ug BSA, 4 C 1 h; details: protein: recombinant; tags: N-terminal MBP (pETG-40A); chain copies: 2; blunt
MBP-HY5 [2] = molecular target: T1, MBP-HY5; test: pull-down; 5 mM MgCl2; salmon sperm DNA; EMSA: 20 fmol biotin probe, ~1 ug protein, 20 ul binding buffer (composition not given), on ice 1 h; pull-down: 10 mM Tris-HCl pH 7.5, 50 mM KCl, 5 mM MgCl2, 2.5% glycerol, 0.05% NP-40, 5 ug salmon sperm DNA, 10 ug BSA, 4 C 1 h; details: protein: recombinant; tags: N-terminal MBP (pETG-40A); chain copies: 2; blunt

Binder	binding result (MBP-HY5 [1])	binding result (MBP-HY5 [2])
B1	binds	–
B2	–	no binding

Source: article PMC8184810, “Light regulates stomatal development by modulating paracrine signaling from inner tissues”
